{"source": "paper PMC10397247", "experiment_in_all_cases": "two-hybrid library CCmax;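 further: natural log of median RNA to DNA barcode read ratio; higher means stronger binding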", "key": {"4H174-AA": {"molecular_target": "T1, 4H174-AA", "T1 chain": "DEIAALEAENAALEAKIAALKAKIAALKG"}, "4H1842-AA": {"molecular_target": "T2, 4H1842-AA", "T2 chain": "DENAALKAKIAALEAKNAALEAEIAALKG", "conditions": "mean of both orientations"}, "4H1864-AA": {"molecular_target": "T3, 4H1864-AA", "T3 chain": "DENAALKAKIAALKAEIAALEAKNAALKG", "conditions": "mean of both orientations"}, "4H1877-AA": {"molecular_target": "T4, 4H1877-AA", "T4 chain": "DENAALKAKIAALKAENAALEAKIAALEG", "conditions": "mean of both orientations"}, "4H2109-AA": {"molecular_target": "T5, 4H2109-AA", "T5 chain": "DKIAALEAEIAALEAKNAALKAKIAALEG", "conditions": "mean of both orientations"}, "4H2162-AA": {"molecular_target": "T6, 4H2162-AA", "T6 chain": "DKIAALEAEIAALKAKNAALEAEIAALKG", "conditions": "mean of both orientations"}, "4H2253-AA": {"molecular_target": "T7, 4H2253-AA", "T7 chain": "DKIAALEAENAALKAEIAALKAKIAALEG", "conditions": "mean of both orientations"}, "4H2274-AA": {"molecular_target": "T8, 4H2274-AA", "T8 chain": "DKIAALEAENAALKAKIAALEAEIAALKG", "conditions": "mean of both orientations"}, "4H2330-AA": {"molecular_target": "T9, 4H2330-AA", "T9 chain": "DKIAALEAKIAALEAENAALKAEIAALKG", "conditions": "mean of both orientations"}, "4H2389-AA": {"molecular_target": "T10, 4H2389-AA", "T10 chain": "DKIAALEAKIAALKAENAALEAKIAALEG", "conditions": "mean of both orientations"}, "4H2438-AA": {"molecular_target": "T11, 4H2438-AA", "T11 chain": "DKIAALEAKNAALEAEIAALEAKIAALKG", "conditions": "mean of both orientations"}, "4H2473-AA": {"molecular_target": "T12, 4H2473-AA", "T12 chain": "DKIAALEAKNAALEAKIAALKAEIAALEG", "conditions": "mean of both orientations"}, "4H2649-AA": {"molecular_target": "T13, 4H2649-AA", "T13 chain": "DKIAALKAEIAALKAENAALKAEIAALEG", "conditions": "mean of both orientations"}, "4H2698-AA": {"molecular_target": "T14, 4H2698-AA", "T14 chain": "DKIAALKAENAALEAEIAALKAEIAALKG", "conditions": "mean of both orientations"}, "4H2725-AA": {"molecular_target": "T15, 4H2725-AA", "T15 chain": "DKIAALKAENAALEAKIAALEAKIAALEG", "conditions": "mean of both orientations"}, "4H2865-AA": {"molecular_target": "T16, 4H2865-AA", "T16 chain": "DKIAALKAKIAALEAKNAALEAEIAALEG", "conditions": "mean of both orientations"}, "4H3009-AA": {"molecular_target": "T17, 4H3009-AA", "T17 chain": "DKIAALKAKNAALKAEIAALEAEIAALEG", "conditions": "mean of both orientations"}, "4H3016-AA": {"molecular_target": "T18, 4H3016-AA", "T18 chain": "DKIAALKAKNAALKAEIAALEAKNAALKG", "conditions": "mean of both orientations"}, "4H310-AA": {"molecular_target": "T19, 4H310-AA", "T19 chain": "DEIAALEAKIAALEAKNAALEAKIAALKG", "conditions": "mean of both orientations"}, "4H3120-AA": {"molecular_target": "T20, 4H3120-AA", "T20 chain": "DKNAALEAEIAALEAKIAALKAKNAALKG", "conditions": "mean of both orientations"}, "4H3130-AA": {"molecular_target": "T21, 4H3130-AA", "T21 chain": "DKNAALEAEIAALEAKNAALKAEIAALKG"}, "4H3165-AA": {"molecular_target": "T22, 4H3165-AA", "T22 chain": "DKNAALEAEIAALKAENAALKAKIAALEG", "conditions": "mean of both orientations"}, "4H3381-AA": {"molecular_target": "T23, 4H3381-AA", "T23 chain": "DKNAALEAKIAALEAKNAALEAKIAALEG", "conditions": "mean of both orientations"}, "4H3395-AA": {"molecular_target": "T24, 4H3395-AA", "T24 chain": "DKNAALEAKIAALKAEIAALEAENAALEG"}, "4H3410-AA": {"molecular_target": "T25, 4H3410-AA", "T25 chain": "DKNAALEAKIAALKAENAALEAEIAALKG", "conditions": "mean of both orientations"}, "4H3590-AA": {"molecular_target": "T26, 4H3590-AA", "T26 chain": "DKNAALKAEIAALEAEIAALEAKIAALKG", "conditions": "mean of both orientations"}, "4H3697-AA": {"molecular_target": "T27, 4H3697-AA", "T27 chain": "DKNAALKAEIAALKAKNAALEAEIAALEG", "conditions": "mean of both orientations"}, "4H3753-AA": {"molecular_target": "T28, 4H3753-AA", "T28 chain": "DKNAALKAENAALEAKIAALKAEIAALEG", "conditions": "mean of both orientations"}, "4H3865-AA": {"molecular_target": "T29, 4H3865-AA", "T29 chain": "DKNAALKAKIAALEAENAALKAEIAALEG", "conditions": "mean of both orientations"}, "4H458-AA": {"molecular_target": "T30, 4H458-AA", "T30 chain": "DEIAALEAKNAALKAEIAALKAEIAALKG", "conditions": "mean of both orientations"}, "4H485-AA": {"molecular_target": "T31, 4H485-AA", "T31 chain": "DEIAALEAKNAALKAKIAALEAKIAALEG", "conditions": "mean of both orientations"}, "4H536-AA": {"molecular_target": "T32, 4H536-AA", "T32 chain": "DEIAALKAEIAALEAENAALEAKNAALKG", "conditions": "mean of both orientations"}, "4H570-AA": {"molecular_target": "T33, 4H570-AA", "T33 chain": "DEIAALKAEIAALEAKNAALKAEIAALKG", "conditions": "mean of both orientations"}, "4H629-AA": {"molecular_target": "T34, 4H629-AA", "T34 chain": "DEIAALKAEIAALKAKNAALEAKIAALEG", "conditions": "mean of both orientations"}, "4H710-AA": {"molecular_target": "T35, 4H710-AA", "T35 chain": "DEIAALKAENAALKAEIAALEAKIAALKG", "conditions": "mean of both orientations"}, "4H745-AA": {"molecular_target": "T36, 4H745-AA", "T36 chain": "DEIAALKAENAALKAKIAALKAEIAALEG", "conditions": "mean of both orientations"}, "4H797-AA": {"molecular_target": "T37, 4H797-AA", "T37 chain": "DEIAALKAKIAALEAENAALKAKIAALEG", "conditions": "mean of both orientations"}, "4H850-AA": {"molecular_target": "T38, 4H850-AA", "T38 chain": "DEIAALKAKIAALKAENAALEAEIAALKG", "conditions": "mean of both orientations"}, "4H891-AA": {"molecular_target": "T39, 4H891-AA", "T39 chain": "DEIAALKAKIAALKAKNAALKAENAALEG", "conditions": "mean of both orientations"}, "4H909-AA": {"molecular_target": "T40, 4H909-AA", "T40 chain": "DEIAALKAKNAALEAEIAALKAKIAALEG", "conditions": "mean of both orientations"}, "4H930-AA": {"molecular_target": "T41, 4H930-AA", "T41 chain": "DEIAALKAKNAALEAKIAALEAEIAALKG", "conditions": "mean of both orientations"}, "4H94-AA": {"molecular_target": "T42, 4H94-AA", "T42 chain": "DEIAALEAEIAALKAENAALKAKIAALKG", "conditions": "mean of both orientations"}}}
{"binder": "DEIAALEAENAALEAKIAALKAKIAALKG", "note": "[4H174-AA]", "values": [{"measurement": "interaction score", "setting": "4H174-AA", "value": 1.79}, {"measurement": "interaction score", "setting": "4H1842-AA", "value": -0.689}, {"measurement": "interaction score", "setting": "4H1864-AA", "value": -0.256}, {"measurement": "interaction score", "setting": "4H1877-AA", "value": -0.507}, {"measurement": "interaction score", "setting": "4H2109-AA", "value": 2.01}, {"measurement": "interaction score", "setting": "4H2162-AA", "value": -0.944}, {"measurement": "interaction score", "setting": "4H2253-AA", "value": 0.429}, {"measurement": "interaction score", "setting": "4H2274-AA", "value": 1.3}, {"measurement": "interaction score", "setting": "4H2330-AA", "value": 0.552}, {"measurement": "interaction score", "setting": "4H2389-AA", "value": -0.219}, {"measurement": "interaction score", "setting": "4H2438-AA", "value": 2.25}, {"measurement": "interaction score", "setting": "4H2473-AA", "value": 1.69}, {"measurement": "interaction score", "setting": "4H2649-AA", "value": -0.748}, {"measurement": "interaction score", "setting": "4H2698-AA", "value": 2.04}, {"measurement": "interaction score", "setting": "4H2725-AA", "value": 1.47}, {"measurement": "interaction score", "setting": "4H2865-AA", "value": 0.805}, {"measurement": "interaction score", "setting": "4H3009-AA", "value": 2.3}, {"measurement": "interaction score", "setting": "4H3016-AA", "value": 1.81}, {"measurement": "interaction score", "setting": "4H310-AA", "value": 1.6}, {"measurement": "interaction score", "setting": "4H3120-AA", "value": -0.846}, {"measurement": "interaction score", "setting": "4H3130-AA", "value": 1.99}, {"measurement": "interaction score", "setting": "4H3165-AA", "value": -1.24}, {"measurement": "interaction score", "setting": "4H3381-AA", "value": -1.38}, {"measurement": "interaction score", "setting": "4H3395-AA", "value": 0.219}, {"measurement": "interaction score", "setting": "4H3410-AA", "value": -0.289}, {"measurement": "interaction score", "setting": "4H3590-AA", "value": 2.2}, {"measurement": "interaction score", "setting": "4H3697-AA", "value": -0.364}, {"measurement": "interaction score", "setting": "4H3753-AA", "value": 1.06}, {"measurement": "interaction score", "setting": "4H3865-AA", "value": 0.259}, {"measurement": "interaction score", "setting": "4H458-AA", "value": 0.887}, {"measurement": "interaction score", "setting": "4H485-AA", "value": 1.94}, {"measurement": "interaction score", "setting": "4H536-AA", "value": -0.546}, {"measurement": "interaction score", "setting": "4H570-AA", "value": 1.49}, {"measurement": "interaction score", "setting": "4H629-AA", "value": -0.697}, {"measurement": "interaction score", "setting": "4H710-AA", "value": 2.23}, {"measurement": "interaction score", "setting": "4H745-AA", "value": 1.69}, {"measurement": "interaction score", "setting": "4H797-AA", "value": -1.35}, {"measurement": "interaction score", "setting": "4H850-AA", "value": 1.05}, {"measurement": "interaction score", "setting": "4H891-AA", "value": -0.401}, {"measurement": "interaction score", "setting": "4H909-AA", "value": 0.929}, {"measurement": "interaction score", "setting": "4H930-AA", "value": 1.44}, {"measurement": "interaction score", "setting": "4H94-AA", "value": 1.29}]}
